# Data: the supplement of paper PMC9112550, “Optimization of the antimicrobial peptide Bac7 by deep mutational scanning” (BMC Biology, 2022)
# System: Escherichia coli TOP10
# Assay: shrunken log2 fold change of peptide-encoding DNA abundance (4.5 h post-induction vs induction); higher = less antimicrobial activity (less host growth inhibition)
# Conditions: time post-induction: 4.5 h; library: site-saturation at positions 5, 18, 19, 20
# 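Note: peptides expressed intracellularly from a pBAD plasmid library in pooled LB shake-flask culture, induced with 0.3% L-arabinose, DNA abundance read by NGS, three biological replicates, DESeq2 with apeglm shrinkage.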
row,Sequence,shrunken log2 fold change
1,RRIRGRPPRLPRPRPRPWRSPRP,0.172
2,RRIRCRPPRLPRPRPRPITWPRP,-0.189
3,RRIRKRPPRLPRPRPRPVLEPRP,0.475
4,RRIRFRPPRLPRPRPRPIDMPRP,-0.727
5,RRIRSRPPRLPRPRPRPKQRPRP,0.161
6,RRIRTRPPRLPRPRPRPVWVPRP,-0.0284
7,RRIRFRPPRLPRPRPRPYLHPRP,-0.454
8,RRIRVRPPRLPRPRPRPVAHPRP,0.0271
9,RRIRCRPPRLPRPRPRPEPSPRP,0.146
10,RRIRRRPPRLPRPRPRPQAYPRP,0.0231
11,RRIRPRPPRLPRPRPRPFQIPRP,-0.169
12,RRIRYRPPRLPRPRPRPHIQPRP,-1.03
13,RRIRIRPPRLPRPRPRPMPFPRP,0.0123
14,RRIRERPPRLPRPRPRPDCAPRP,0.115
15,RRIRERPPRLPRPRPRPSNQPRP,-0.841
16,RRIRRRPPRLPRPRPRPAQFPRP,0.135
17,RRIRNRPPRLPRPRPRPGFSPRP,0.0167
18,RRIRPRPPRLPRPRPRPYSRPRP,-0.368
19,RRIRERPPRLPRPRPRPESYPRP,0.0161
20,RRIRYRPPRLPRPRPRPESVPRP,-0.316
21,RRIRWRPPRLPRPRPRPIGYPRP,-0.0135
22,RRIRSRPPRLPRPRPRPGIRPRP,0.694
23,RRIRWRPPRLPRPRPRPMCYPRP,-0.308
24,RRIRVRPPRLPRPRPRPVITPRP,-0.207
25,RRIRWRPPRLPRPRPRPGMDPRP,0.317

row,Sequence,shrunken log2 fold change
1,RRIRERPPRLPRPRPRPRGNPRP,-0.598
2,RRIRGRPPRLPRPRPRPFDRPRP,0.0386
3,RRIRMRPPRLPRPRPRPFWIPRP,0.00154
4,RRIRHRPPRLPRPRPRPEAQPRP,-0.00183
5,RRIRTRPPRLPRPRPRPTDWPRP,0.218
6,RRIRCRPPRLPRPRPRPQTYPRP,-0.727
7,RRIRRRPPRLPRPRPRPGTQPRP,0.0536
8,RRIRDRPPRLPRPRPRPNWYPRP,-0.476
9,RRIRSRPPRLPRPRPRPRGGPRP,0.84
10,RRIRCRPPRLPRPRPRPPYQPRP,-0.138
11,RRIRTRPPRLPRPRPRPIWHPRP,0.12
12,RRIRVRPPRLPRPRPRPVLEPRP,-0.0482
13,RRIRSRPPRLPRPRPRPQSSPRP,-0.192
14,RRIRWRPPRLPRPRPRPSCNPRP,-0.0978
15,RRIRCRPPRLPRPRPRPWVDPRP,-0.00886
16,RRIRMRPPRLPRPRPRPMSWPRP,0.132
17,RRIRLRPPRLPRPRPRPGAHPRP,0.057
18,RRIRLRPPRLPRPRPRPRQHPRP,-0.0111
19,RRIRNRPPRLPRPRPRPRFCPRP,0.254
20,RRIRTRPPRLPRPRPRPTIFPRP,-0.2
21,RRIRIRPPRLPRPRPRPDGTPRP,-0.303
22,RRIRLRPPRLPRPRPRPEIHPRP,-0.269
23,RRIRQRPPRLPRPRPRPAIIPRP,-0.0528
24,RRIRFRPPRLPRPRPRPFYSPRP,-0.0734
25,RRIRYRPPRLPRPRPRPLTQPRP,-0.416

row,Sequence,shrunken log2 fold change
1,RRIRKRPPRLPRPRPRPQKIPRP,-0.0746
2,RRIRIRPPRLPRPRPRPQSSPRP,0.00983
3,RRIRYRPPRLPRPRPRPHMRPRP,-0.02
4,RRIRSRPPRLPRPRPRPIYDPRP,0.0384
5,RRIRERPPRLPRPRPRPDRWPRP,-0.0318
6,RRIRDRPPRLPRPRPRPRTPPRP,0.17
7,RRIRDRPPRLPRPRPRPTWMPRP,0.507
8,RRIRSRPPRLPRPRPRPFIKPRP,-0.275
9,RRIRPRPPRLPRPRPRPPMFPRP,0.0198
10,RRIRPRPPRLPRPRPRPVYIPRP,-0.684
11,RRIRPRPPRLPRPRPRPIIKPRP,-0.417
12,RRIRCRPPRLPRPRPRPDFWPRP,0.0753
13,RRIRIRPPRLPRPRPRPQLDPRP,-0.138
14,RRIRARPPRLPRPRPRPFLRPRP,0.0973
15,RRIRIRPPRLPRPRPRPMHTPRP,0.0542
16,RRIRARPPRLPRPRPRPNQSPRP,0.0591
17,RRIRIRPPRLPRPRPRPSPDPRP,0.127
18,RRIRERPPRLPRPRPRPGLMPRP,-0.0269
19,RRIRLRPPRLPRPRPRPTCEPRP,0.497
20,RRIRFRPPRLPRPRPRPYINPRP,-0.647
21,RRIRIRPPRLPRPRPRPQIDPRP,-2.56
22,RRIRNRPPRLPRPRPRPRTNPRP,-0.166
23,RRIRHRPPRLPRPRPRPHEKPRP,-0.00373
24,RRIRARPPRLPRPRPRPQCKPRP,-0.077
25,RRIRERPPRLPRPRPRPHFRPRP,-0.624

row,Sequence,shrunken log2 fold change
1,RRIRDRPPRLPRPRPRPVNYPRP,-0.116
2,RRIRMRPPRLPRPRPRPGRAPRP,1.27
3,RRIRTRPPRLPRPRPRPVQWPRP,0.116
4,RRIRNRPPRLPRPRPRPDQKPRP,-0.000687
5,RRIRKRPPRLPRPRPRPRATPRP,1.17
6,RRIRWRPPRLPRPRPRPLACPRP,0.206
7,RRIRWRPPRLPRPRPRPSQTPRP,0.657
8,RRIRARPPRLPRPRPRPERWPRP,0.956
9,RRIRLRPPRLPRPRPRPMMYPRP,-0.0922
10,RRIRTRPPRLPRPRPRPKKHPRP,-0.265
11,RRIRARPPRLPRPRPRPQVAPRP,0.591
12,RRIRQRPPRLPRPRPRPGCAPRP,0.507
13,RRIRARPPRLPRPRPRPGGNPRP,0.2
14,RRIRWRPPRLPRPRPRPNKYPRP,-0.481
15,RRIRIRPPRLPRPRPRPNWQPRP,-0.0358
16,RRIRIRPPRLPRPRPRPWPKPRP,-0.122
17,RRIRNRPPRLPRPRPRPLQTPRP,-0.0644
18,RRIRYRPPRLPRPRPRPWRCPRP,2.33
19,RRIRGRPPRLPRPRPRPIRDPRP,0.0394
20,RRIRSRPPRLPRPRPRPNTMPRP,-0.154
21,RRIRRRPPRLPRPRPRPHDQPRP,0.0964
22,RRIRDRPPRLPRPRPRPYGFPRP,-0.0405
23,RRIRIRPPRLPRPRPRPCGNPRP,0.00902
24,RRIRHRPPRLPRPRPRPWDEPRP,-0.175
25,RRIRARPPRLPRPRPRPVEWPRP,0.544

row,Sequence,shrunken log2 fold change
1,RRIRKRPPRLPRPRPRPTEEPRP,2.12
2,RRIRTRPPRLPRPRPRPRDTPRP,-0.0276
3,RRIRCRPPRLPRPRPRPFRDPRP,-0.0732
4,RRIRDRPPRLPRPRPRPDFAPRP,0.152
5,RRIRQRPPRLPRPRPRPCWRPRP,-0.0087
6,RRIRYRPPRLPRPRPRPNMHPRP,-0.934
7,RRIRGRPPRLPRPRPRPSTHPRP,0.159
8,RRIRLRPPRLPRPRPRPAMGPRP,0.248
9,RRIRKRPPRLPRPRPRPFWQPRP,0.0521
10,RRIRERPPRLPRPRPRPGWCPRP,0.00111
11,RRIRVRPPRLPRPRPRPPVLPRP,-0.201
12,RRIRFRPPRLPRPRPRPRIIPRP,-0.514
13,RRIRPRPPRLPRPRPRPHFPPRP,-0.204
14,RRIRHRPPRLPRPRPRPYMQPRP,-0.476
15,RRIRNRPPRLPRPRPRPTFHPRP,-0.422
16,RRIRWRPPRLPRPRPRPGFLPRP,0.144
17,RRIRVRPPRLPRPRPRPKGYPRP,-0.0404
18,RRIRPRPPRLPRPRPRPNVKPRP,-0.475
19,RRIRDRPPRLPRPRPRPRISPRP,0.0345
20,RRIRMRPPRLPRPRPRPVYFPRP,-0.0299
21,RRIRKRPPRLPRPRPRPKRKPRP,0.89
22,RRIRMRPPRLPRPRPRPNLHPRP,-0.0942
23,RRIRIRPPRLPRPRPRPESYPRP,0.0064
24,RRIRCRPPRLPRPRPRPIHWPRP,-0.363
25,RRIRGRPPRLPRPRPRPMSQPRP,0.213
